The values that follow are results of earlier work, collected in US11845786B2, “Peptides inhibiting KLK1, KLK4, or KLK4 and KLK8” (Daiichi Sankyo Company, Limited, priority 2017, dated 2023).

For one data set, the target named is KLK4 (Homo sapiens, UniProt Q9Y5K2). The settings on record: Non Patent Literature 5.
Another data set deals with T1, KLK12 (Homo sapiens, UniProt Q9UKR0).
T1 sequence (Q9UKR0 18-248): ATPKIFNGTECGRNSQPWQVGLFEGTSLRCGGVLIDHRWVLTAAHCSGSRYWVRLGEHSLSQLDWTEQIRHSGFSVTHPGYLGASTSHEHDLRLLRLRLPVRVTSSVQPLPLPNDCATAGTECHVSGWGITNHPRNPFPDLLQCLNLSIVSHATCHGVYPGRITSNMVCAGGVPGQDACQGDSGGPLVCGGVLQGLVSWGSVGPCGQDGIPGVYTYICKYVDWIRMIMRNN
The following applies: Non Patent Literature 5.

A further data set deals with T2, KLK13 (Homo sapiens, UniProt Q9UKR3).
T2 sequence (Q9UKR3 17-277): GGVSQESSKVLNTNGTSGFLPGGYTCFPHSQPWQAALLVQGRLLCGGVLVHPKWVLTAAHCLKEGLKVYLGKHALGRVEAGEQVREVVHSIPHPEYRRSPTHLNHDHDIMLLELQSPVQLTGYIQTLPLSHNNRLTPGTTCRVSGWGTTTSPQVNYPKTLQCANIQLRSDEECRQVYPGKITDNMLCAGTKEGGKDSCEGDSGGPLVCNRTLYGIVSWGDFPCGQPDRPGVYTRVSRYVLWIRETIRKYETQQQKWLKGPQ
The following applies: Non Patent Literature 5.

In the next data set the target is T3, KLK8 (Homo sapiens, UniProt O60259).
T3 sequence (O60259 33-260): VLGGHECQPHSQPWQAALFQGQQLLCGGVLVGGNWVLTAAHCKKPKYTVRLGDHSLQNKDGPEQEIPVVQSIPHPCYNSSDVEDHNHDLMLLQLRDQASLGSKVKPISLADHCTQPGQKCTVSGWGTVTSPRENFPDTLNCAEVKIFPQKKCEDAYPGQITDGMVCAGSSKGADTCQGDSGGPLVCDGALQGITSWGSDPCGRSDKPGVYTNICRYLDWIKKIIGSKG
The settings on record: Non Patent Literature 7.

Chain of KLK4 (Q9Y5K2 31-254): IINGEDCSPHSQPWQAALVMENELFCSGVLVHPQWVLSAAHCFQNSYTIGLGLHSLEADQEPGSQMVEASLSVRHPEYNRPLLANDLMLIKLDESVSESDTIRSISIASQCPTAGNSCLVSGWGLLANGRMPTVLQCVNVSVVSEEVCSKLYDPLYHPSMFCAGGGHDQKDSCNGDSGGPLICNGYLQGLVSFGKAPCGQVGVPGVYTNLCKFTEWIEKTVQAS

As usually defined, the Ki is the dissociation constant of the complex between target and ligand, obtained from inhibition or displacement. Regarding “SPINK6: human serine protease of Kazal-type 6, natural KLK4 inhibitor of low specificity (QGGQVDCGEFQDPKVYCTRESNPHCGSDGQTYGNKCAFCKAIVKSGGKISLKHPGKC; UniProt Q6UWN8 24-80, looked up)”, the figures for the inhibition constant Ki with KLK4, in the data set with KLK12 and in the data set with KLK13 were 27 nM, 1 nM and 1 nM, respectively.

B1: SPINK9: human serine protease of Kazal-type 9, reported to have KLK8 inhibitory activity (protein, UniProt Q5DT21 20-86, looked up)
Serine protease inhibitor …: IECAKQTKQMVDCSHYKKLPPGQQRFCHHMYDPICGSDGKTYKNDCFFCSKVKKTDGTLKFVHFGKC
Take B1: the KLK8 inhibitory activity result with KLK8 was “very weak”.
